From the nanobody polyreactivity screen of Harvey et al. (2022)

Experiment: yeast display, Sf9 membrane polyspecificity reagent, FACS + sequencing; frameworks hold sequencing errors
Summary of the method: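 A synthetic nanobody library was expressed on Saccharomyces cerevisiae BJ5465 by galactose induction for 36–48 hours. The library was stained for 1 hour at 4 °C with 10% biotinylated, detergent-solubilized Sf9 membrane reagent and enriched with streptavidin microbeads before FACS. Low and high (top ~1%) gates were set on anti-HA fluorescence for expression and streptavidin fluorescence for reagent binding, and each polyreactivity label reflects the gate of origin.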
In the case of “QVQLVESGGGLVQAGGSLRLSCAASGSTFPSYAMGWYRPAPGKERELVAAINSGGGTNYADSVKGRFTISRDNAKNTVYLQMNSLKPEDTAVYYCAKSRYEYTKTEGGYWGQGTQVTVSS”, the “polyreactivity (PSR sort gate)” value is reported as “low polyreactivity”.
In the case of “QVQLVESGGGLVQAGGSLRLSCAASGSTFPSYAMGWYRQAPGKERELVAAINSGGGTNYADSVKGRFTISRDNAKNTVYLQMNSLKPEDTAVYYCAKSRYDYNKTEGGYWGQGTQVTVSS”, the “polyreactivity (PSR sort gate)” value is reported as “low polyreactivity”.
In the case of “QVQLVESGGGLVQAGGSLRLSCAASGSTFPSYTMGWYRLAPGKERELVAAITLSGGSTYYADSVKGRFTISRDKAKNTVSLQMNSQKPEDTAVYYCAAYSQRGYDYWGQGTQVTVSS”, the “polyreactivity (PSR sort gate)” value is reported as “low polyreactivity”.
With “QVQLVESGGGLVQAGGSLRLSCAASGSTFPTNAMGWYRQAPGKERELVATITSTGSTKYADSVKGRFTISRDNAKNTVYLQMNSLKPEDTAVYYCAADEYAYASRFYWALIHDYWGQGTQVTVSS” the “polyreactivity (PSR sort gate)” value was “low polyreactivity”.
In the case of “QVQLVESGGGLVQAGGSLRLSCAASGSTFPTYAMGWYRQAPGKERELVAAISRSGGRTYYADSVKGRFTISRDNAKNTVYLQMNSLKPEDTAVYYCAAQYRLSGGYNYDYWGQGTQVTVSS”, the “polyreactivity (PSR sort gate)” value is reported as “high polyreactivity”.
With “QVQLVESGGGLVQAGGSLRLSCAASGSTFPVNAMGWYRQAPGKERELVATIRWTGGGTYYADSVKGRFTISRDNAKNTVYLQMNSLKPEDTAVYYCAADPPWEWSDYGYDYWGQGTQVTVSS” the “polyreactivity (PSR sort gate)” value was “low polyreactivity”.
With “QVQLVESGGGLVQAGGSLRLSCAASGSTFPVNTMGWYRQAPGKERELVAAISSDDNTNYADSVKGRFTISRDNAKNTVYLQMNSLKPEDTEVYYCAVKGHPAYVEVPPRYAWEFDYWGQGTQVTVSS” the “polyreactivity (PSR sort gate)” value was “low polyreactivity”.
For “QVQLVESGGGLVQAGGSLRLSCAASGSTFPVYVMGWYRPAPGKERELVAAITRSGGSTYYADSVKGRFTISRDNAKNTVYLQMNSLKPEDTAVYYCNKDVWDGYDWPEFDYWGQGTQVTVSS”, the “polyreactivity (PSR sort gate)” value was “low polyreactivity”.
For “QVQLVESGGGLVQAGGSLRLSCAASGSTFPWYAMGWYRQAPGKEREVVAAISSSGGSTYYADSVKGRFTISRDKAKNTVYLQMNSLKPEDTAVYYCNAQHPGYYWGYDYWGQGTQVTVSS”, the “polyreactivity (PSR sort gate)” value was “high polyreactivity”.
For “QVQLVESGGGLVQAGGSLRLSCAASGSTFPYNAMGWYRQAPGKERELVAAITWRAGRTYYADSVKGRFTISRDNAKITVYLHMNSLKAEDTAVYYCAKSYQRGVNHYEYWGQGTQVTVSS”, the “polyreactivity (PSR sort gate)” value was “high polyreactivity”.
For “QVQLVESGGGLVQAGGSLRLSCAASGSTFPYNAMGWYRQAPGKERELVASISRRGGSTYYADSVKGRFTISRDNAKNTVYLQMNSLKPEDTAVYYCNASGGPYRYYYWGQGTQVTVSS”, the “polyreactivity (PSR sort gate)” value was “low polyreactivity”.
For “QVQLVESGGGLVQAGGSLRLSCAASGSTFPYNAMGWYRQAPGKEREMVAAITYSGGSTYYADSVKGRFTISRDNAKNTVYLQMNSLKPEDTAVYYCNADDSTTYDYWGQGTQVTVSS”, the “polyreactivity (PSR sort gate)” value was “low polyreactivity”.
In the case of “QVQLVESGGGLVQAGGSLRLSCAASGSTFPYNTMGWYRQAPGKEREFVAAITGDGGTTYYADSVKGRFTISRDNAKNTVYLQMYSLKPEDTAVYYSAVPYPAEGYGGDYWGQGTQVTVSS”, the “polyreactivity (PSR sort gate)” value is reported as “low polyreactivity”.
With “QVQLVESGGGLVQAGGSLRLSCAASGSTFPYPYTMGWYREAPGKERELVAVISRTGGSTFYADSVKRRFTISRDNAKNTVYLQMNSLKPEDTAVYYCAARRDGWTFWKYDYWGQGTQVTVSS” the “polyreactivity (PSR sort gate)” value was “high polyreactivity”.
With “QVQLVESGGGLVQAGGSLRLSCAASGSTFPYVMGWYTPAPGKERELVAAISQRTGSTYYADSVKGRFTISRDNAKNSVYLQMNILKPEDTAVYYCAKPVYLSPSRYDYWGQGTQVTVSS” the “polyreactivity (PSR sort gate)” value was “high polyreactivity”.
For “QVQLVESGGGLVQAGGSLRLSCAASGSTFPYYAMGWYRQAPGKERELVAAISKSGGSTYYADSVKGRFTISRDNAKNTVYLQMNSLKPEDTAVYYCAAGPRYRYYSGWYDYWGQGTQVTVSS”, the “polyreactivity (PSR sort gate)” value was “high polyreactivity”.
For “QVQLVESGGGLVQAGGSLRLSCAASGSTFPYYAMGWYRQAPGKERELVAAISSSGGSTYYADSVKGRFTISRDNANNTVYLQMNSLKPEDTAVYYCATSSLYRYWHRYDYWGQGTQVTVSS”, the “polyreactivity (PSR sort gate)” value was “high polyreactivity”.
For “QVQLVESGGGLVQAGGSLRLSCAASGSTFPYYAMGWYRQAPGKERELVAAISSSGSRTYYADSVKGRFTISRDNAKNTVYLQMNSLKPEDTAVYYCAADNAAQPYPAGMDYWGQGTQVTVSS”, the “polyreactivity (PSR sort gate)” value was “low polyreactivity”.
In the case of “QVQLVESGGGLVQAGGSLRLSCAASGSTFPYYAMGWYRQAPGKERELVAAITSGGSTNYADSVKGRFTISRDNAKNTVYLQMNSLKPEDTAVYYCNAEWRRRYTYLRRVYYGFDYWGQGTQVTVSS”, the “polyreactivity (PSR sort gate)” value is reported as “high polyreactivity”.
For “QVQLVESGGGLVQAGGSLRLSCAASGSTFQANTMGWYRQAPGKERELVAAISIRGANTYYADSVKGRFTISRDNAKNTVYLQMNSLKPEDTAVYYCNAALRTRRGDYDYWGQGTQVTVSS”, the “polyreactivity (PSR sort gate)” value was “high polyreactivity”.
For “QVQLVESGGGLVQAGGSLRLSCAASGSTFQFNAMGWYRPAPGKEREFVAAITSSAGRTYYADSVKGRFTISRDNAKKTVYLQMNSLKPEDTAVYYCATGPYSPPSAGPEYDYWGQGTQVTVSS”, the “polyreactivity (PSR sort gate)” value was “high polyreactivity”.
For “QVQLVESGGGLVQAGGSLRLSCAASGSTFQHYAMGWYRQAPGKERELVAAITHTGGSTYYADSVKGRFTISRDNAKNTVYLQMNSLKPEDTAVYYCATVGRRYGYPGYYWGQGTQVTVSS”, the “polyreactivity (PSR sort gate)” value was “low polyreactivity”.
With “QVQLVESGGGLVQAGGSLRLSCAASGSTFQPNAMGWYRQAPGKERELVAISSGDDTYYADSVKGRFTISRDKAKNTVYFQMNSLIPEDSAVYYCAAEYSFIYYWGQGTQVTVSS” the “polyreactivity (PSR sort gate)” value was “low polyreactivity”.
For “QVQLVESGGGLVQAGGSLRLSCAASGSTFQRYAKGWYRQAPGKEWELVAGITGSVGRTYYADSVKGRFTISRDNAKNTVDLQMNSLKPQATAVSYCAADGRTWLYYGTRRDYWGQGTQVTVSS”, the “polyreactivity (PSR sort gate)” value was “high polyreactivity”.
In the case of “QVQLVESGGGLVQAGGSLRLSCAASGSTFQRYAMGWYRQAPGKERELVAAITWSGGSTYYADSVKGRFTISRDNAKNTGYLQMNSLKPEDTAVYYGAARSVRYGFGYWGQGTQVTVSS”, the “polyreactivity (PSR sort gate)” value is reported as “high polyreactivity”.
For “QVQLVESGGGLVQAGGSLRLSCAASGSTFQSYAMGWYRQAPGKERELVAAISARGGTTYYADSVKGRFTISRDNAKNTVYLQMNSLKPEDTAVYYCAVDRAFRAQNYHEYDYWGQGTQVTVSS”, the “polyreactivity (PSR sort gate)” value was “low polyreactivity”.
For “QVQLVESGGGLVQAGGSLRLSCAASGSTFQSYAMGWYRQAPGKERELVARIRNSGGSTYYADSVKGRFTISRDNAKNTVYLQMNSLKPEDTAVYYCNARYVSRYLTYQYDYWGQGTQVTVSS”, the “polyreactivity (PSR sort gate)” value was “high polyreactivity”.
In the case of “QVQLVESGGGLVQAGGSLRLSCAASGSTFQTDTMGWYRQAPGKERELVASITWRGGRTYYADSVKGRFTISRDNAKNTVYLQMNSLKPEDTAVYYCAAVTFSYDGYDYWGQGTQVTVSS”, the “polyreactivity (PSR sort gate)” value is reported as “low polyreactivity”.
In the case of “QVQLVESGGGLVQAGGSLRLSCAASGSTFQTYAMGWSRQAPGKERELVAAITWRGGSTYYADSVKGRFTISRDNAKNTVYLQMNSLKPDDTAVYYCAAKWNGSHDHRAAYESWGQGTQVTVSS”, the “polyreactivity (PSR sort gate)” value is reported as “low polyreactivity”.
In the case of “QVQLVESGGGLVQAGGSLRLSCAASGSTFQTYAMGWYRQAPGKERELVAAITSGGSTNYADSVNGRFTISRDNAKNTVYLQMNSLKPEDTAVYYCAGRQIYQTSEHRLQYDYWGQGTQVTVSS”, the “polyreactivity (PSR sort gate)” value is reported as “low polyreactivity”.
In the case of “QVQLVESGGGLVQAGGSLRLSCAASGSTFQVYGMGWYRQAPGKERELVAAISRSGGRTYYADSVKGRFTISRDNAKNTVYLQMNSLKPEDTAVYYCNAPISYYDEYYYWGQGTQVTVSS”, the “polyreactivity (PSR sort gate)” value is reported as “high polyreactivity”.
In the case of “QVQLVESGGGLVQAGGSLRLSCAASGSTFQWYAMGWNIQAPGKERELVAGITRTGSTYYADSVKGRFTISRDNAKNTVYLQMNSLKPEDTAVYYCAAKWHTASGKYYYWGQVTQVTVSS”, the “polyreactivity (PSR sort gate)” value is reported as “high polyreactivity”.
With “QVQLVESGGGLVQAGGSLRLSCAASGSTFQWYAMGWYRQAPGKERELVAAISNGVSTNYADSVKGRFTISRDNAKNTVYLHMNSLKPEDTAVYYCAADAYPYYQSYYPFEYLGQGTQVTVSS” the “polyreactivity (PSR sort gate)” value was “low polyreactivity”.
In the case of “QVQLVESGGGLVQAGGSLRLSCAASGSTFQYNVMGWYRQAPGKERELVAAITNRDGSTYYADSVKGRFTISRDNAKNTVYLQMNSLKPEDTAVYYCAAPVWLWADRYDSWGQGTQVTVSS”, the “polyreactivity (PSR sort gate)” value is reported as “low polyreactivity”.
With “QVQLVESGGGLVQAGGSLRLSCAASGSTFQYYAMGGYRQAPGKERELVAGITWRDGNTYYADTVKGRFTISRDNANNTVYLQMNSLKPEDTAVYYCAARRYFVIYYPYDYWGQGTQVTVSS” the “polyreactivity (PSR sort gate)” value was “low polyreactivity”.
In the case of “QVQLVESGGGLVQAGGSLRLSCAASGSTFQYYAMGWYRQAPGKDRELVAAIRTGGSTNYAHSVKGRFTISRDNAKNTVYLQMNSLKPDDNAVYYCAKRSLRSYRMNYWGQGTQVTVSS”, the “polyreactivity (PSR sort gate)” value is reported as “high polyreactivity”.
With “QVQLVESGGGLVQAGGSLRLSCAASGSTFQYYAMGWYRQAPGKERELVAAISYSSGTTYYADSVKGRFTISRDNAKNTVYLQMNSLKPEDTAVYYCARPARYSYPTSTAFDYWGQGTQVTVSS” the “polyreactivity (PSR sort gate)” value was “low polyreactivity”.
In the case of “QVQLVESGGGLVQAGGSLRLSCAASGSTFQYYTMGWYRQAPGKERELVAAITRSGGRTYYADSVKGRFTISRDNAKNTVYLQMNSLKPEDTAVYYCAALDSRYSGDDYDSWGQGTQVTVSS”, the “polyreactivity (PSR sort gate)” value is reported as “high polyreactivity”.
In the case of “QVQLVESGGGLVQAGGSLRLSCAASGSTFRANAMGRYRQAPGKERELVAAINSGGSTYYADSVKGRFTISRDNAKNTVYLQMNSLKPEDTAVYYCNKRYWRSDYWGQGTQVTVSS”, the “polyreactivity (PSR sort gate)” value is reported as “high polyreactivity”.
With “QVQLVESGGGLVQAGGSLRLSCAASGSTFRANAMGWYRQAPGKESELVADIRFSDGSTYYADSVKGRFTISRDNAKNTVYLQMNSLKPEDTAVYYCAARPSGRGYYLLGYWGQGTQVTVSS” the “polyreactivity (PSR sort gate)” value was “low polyreactivity”.
For “QVQLVESGGGLVQAGGSLRLSCAASGSTFRANVMGWYRQAPGKEMELVAAITSGGGSTYYADSVKGRFTISRDNAKNTVYLQMNSLKPEDTAVYYCATRPIQYRRGYDYWGQGTQVTVSS”, the “polyreactivity (PSR sort gate)” value was “high polyreactivity”.
For “QVQLVESGGGLVQAGGSLRLSCAASGSTFRAYAMGWYRQAPGKEREFVASISWSGGRTYYADSVKGRFTISRDNAKNTVYLQMNSLKPEDTAVYYCAVDLSTHDYDYWGQGTQVTVSS”, the “polyreactivity (PSR sort gate)” value was “low polyreactivity”.
With “QVQLVESGGGLVQAGGSLRLSCAASGSTFRAYAMGWYRQAPGKERELVAAISRSGGSTYYADSVKGRFTISRDNAKNTVYLQMNSLKPEDTAVYYCNAAYKNYQYRPPNIDGQGDYWGQGTQVTVSS” the “polyreactivity (PSR sort gate)” value was “high polyreactivity”.
